B1: tremelimumab: anti-CTLA-4 antibody; in Example 2 given as 750 mg monotherapy Q4W for seven doses then Q12W (T) (antibody)
VH: GVVQPGRSLRLSCAASGFTFSSYGMHWVRQAPGKGLEWVAVIWYDGSNKYYADSVKGRFTISRDNSKNTLYLQMNSLRAEDTAVYYCARDPRGATLYYYYYGMDVWGQGTTVTVSSASTKGPSVFPLAPCSRSTSESTAALGCLVKDYFPEPVTVSWNSGALTSGVH
VL: PSSLSASVGDRVTITCRASQSINSYLDWYQQKPGKAPKLLIYAASSLQSGVPSRFSGSGSGTDFTLTISSLQPEDFATYYCQQYYSTPFTFGPGTKVEIKRTVAAPSVFIFPPSDEQLKSGTASVVCLLNNFYPREAKV
modifications: heavy chain variable region; light chain variable region

Assays:
[1] = system: peripheral blood T cell receptors (T-cell clones); experiment: Molecular analysis of peripheral blood T cell receptors (TCR clonality, immunoSeq) on day 29; type: in vivo, human patients; details: for Median expanded T cell clones at Day 29, n: Day 29, first cycle of Q4W dosing, immunoSeq paired samples
Description: This trend was not seen with monotherapy D or the lower dose T combination (T75+D) (FIG. 15). Additionally, greater clonal expansion of T-cells was associated with better OS and seen in D+T combination arms (FIG. 16).

[2] = system: advanced hepatocellular carcinoma (HCC); experiment: Randomized open-label multi-center clinical study of durvalumab and tremelimumab (Example 2): efficacy (ORR, OS, PFS); type: in vivo, human patients; details: for ORR, % / Median (95% CI) OS, mo: Table 1, per study arm; for Median (95% CI) OS, mo: 95% CI given; for Median PFS (95% CI): patients with advanced HCC, Kaplan-Meier (FIG. 11)
Description: Primary analysis of all tumor assessment-related endpoints was based on BICR assessments according to RECIST v1.1.
Evaluation of target lesions were classified as follows: • Complete Response—Disappearance of all target lesions. Any pathological lymph nodes (whether target or non-target) must have reduction in short axis to <10 mm (the sum may not be “0” if there are target nodes). • Partial Response—At least a 30% decrease in the sum of the diameters of target lesions, taking as reference the baseline sum diameters. • Progressive Disease—At least a 20% increase in the sum of diameters of target lesions, taking as reference the smallest sum on study (this includes the baseline sum if that is the smallest on study). […] (Note: The appearance of one or more new lesions may be considered progression.) • Stable Disease—Neither sufficient shrinkage to qualify for PR nor sufficient increase to qualify for PD, taking as reference the smallest sum of diameters while on study.
The study disclosed below is a randomized, open-label, multi-center, global, clinical study to assess the efficacy and safety of durvalumab monotherapy and durvalumab plus tremelimumab combination therapy versus sorafenib in the treatment of immune checkpoint inhibitor-naïve patients with HCC who progressed on, were intolerant to, or refused sorafenib. In the foregoing disclosure, a flat-dose regimen of 1500 mg (approximately equivalent to 20 mg/kg) of durvalumab plus 300 mg (equivalent to 4 mg/kg) of tremelimumab was used in this study.
The study population included patients 18 years of age or older with advanced HCC, Barcelona Clinic Liver Cancer Stage B (not eligible for locoregional therapy) or stage C, and Child-Pugh A classification liver disease. Patients must not have received any prior systemic therapy for HCC. Patients were stratified according to macrovascular invasion (yes versus no), etiology of liver disease (hepatitis B virus [confirmed HBV] versus hepatitis C virus [confirmed HCV] versus others), and performance status (Eastern Cooperative Oncology Group [ECOG] 0 versus 1).
A total of 332 patients were enrolled (T300+D, n=75; durvalumab, n=104; tremelimumab, n=69; T75+D, n=84). Patients were randomized in an equal ratio to groups treated with durvalumab 1500 mg monotherapy (D), tremelimumab 750 mg monotherapy (T), combination therapy with durvalumab 1500 mg plus tremelimumab 75 mg×4 doses (T75+D) followed by durvalumab Q4W, combination therapy with durvalumab 1500 mg plus tremelimumab 300 mg×1 dose (T 300+D) followed by durvalumab Q4W. Upon closure to further enrollment into the T75+D arm, patients were randomized in an equal ratio to groups treated with D, T300+D, and Sorafenib. Durvalumab and tremelimumab were administered via intravenous (IV) infusion every 4 weeks (Q4W). Sorafenib was administered orally BID (see FIGS. 3 and 4).
(§1) Tremelimumab 750 mg via IV infusion Q4W starting at Week 0 for seven doses and then Q12W until confirmed PD, unacceptable toxicity, or any discontinuation criterion was met. (Note: If a patient's weight decreased to ≤30 kg, the patient received weight-based dosing of tremelimumab 10 mg/kg Q4W, until the weight increased to >30 kg, at which point the patient received the flat dose of tremelimumab 750 mg Q4W).
as §1, with “• Durvalumab 1500” for “Tremelimumab 750”, “0” for “0 for seven doses and then Q12W”, “durvalumab 20” for “tremelimumab 10”, “durvalumab 1500” for “tremelimumab 750”, “Q4W.) […]” for “Q4W).”

[3] = Tremelimumab trough concentration after the first dose (Cmin); type: in vivo, patients with uHCC; details: 300 mg tremelimumab
Procedure: (§2) Finally, an exposure-response model was developed to describe the relationship between tremelimumab exposure and proliferating CD8+ Ki67+ T cells in patients with uHCC. Relationships between tremelimumab trough concentration after the first dose (Cmin) and the maximum change from baseline (CFB) for CD8+ Ki67+ T cell counts were evaluated using linear and non-linear regression models. Covariate effects were evaluated on the model intercept and the drug effect (Emax) using a stepwise search approach. The relationship between CD8+Ki67+ T cell count CFB and tremelimumab trough concentration was best described by an Emax model. The only statistically significant and well estimated covariate effect was the baseline CD8+ Ki67+ T cell count on Emax. The maximum effect was higher in patients with lower baseline CD8+ Ki67+ T cell counts and lower in patients with higher baseline CD8+ Ki67+ T cell counts. At the 10th, median, and 90th percentiles of baseline CD8+(3, 9, and 25 cells/uL), the maximum effect is 593%, 341%, and 77.9% change from baseline, respectively.

[4] = system: proliferating CD8+ Ki67+ T cells; experiment: Exposure-response model: tremelimumab trough concentration vs change from baseline of CD8+ Ki67+ T cell counts; type: in vivo, patients with uHCC
Procedure: as §2

Molecule	clonal expansion of T cells in responders compared to non-responders ([1]; Day 29 (FIG. 15))	Median expanded T cell clones at Day 29, n [1]	ORR, % [2] [%]	Median (95% CI) OS, mo [2] [mo]	Median PFS (95% CI) [2]	median Cmin (trough concentration after the first dose) [3] [ng/mL]	maximum effect (Emax), change from baseline of CD8+ Ki67+ T cell count ([4]; 10th percentile of baseline CD8+ (3 cells/uL)) [%]	maximum effect (Emax), change from baseline of CD8+ Ki67+ T cell count ([4]; 90th percentile of baseline CD8+ (25 cells/uL)) [%]	estimated half-maximal effective concentration (EC50) ([4]; Emax model, CD8+Ki67+ T cell count change from baseline vs tremelimumab Cmin) [µg/mL]	maximum effect (Emax), change from baseline of CD8+ Ki67+ T cell count ([4]; median baseline CD8+ (9 cells/uL)) [%]
durvalumab: human monoclonal antibody directed against human PD-L1; in Example 2 given as 1500 mg monotherapy Q4W (D)	not seen	32 (13, 46)	10.6	13.6	2.07 (1.84-2.83) months	–	–	–	–	–
B1	–	100 (50, 160)	7.2	15.1	2.69 (1.87-5.29) months	12900	593	77.9	5.24	341
